Measured values: US10525246B2, “Microdevice and method for transdermal delivery and sampling of active substances” (NANOMED SKINCARE, INC., priority 2006, dated 2020)

Assay: Serum insulin concentration vs. time in diabetic rat after administration of insulin by the microdevice with occlusive layer
Format: in vivo
Description: The serum concentration reached 110±5.37 μIU/ml and stayed relatively constant at this level when the occlusive layer was applied.

Substance: Novolin R®: Novolin R insulin administered to a diabetic rat by the present microdevice
- Serum insulin concentration after removal of the occlusive layer (after removal of the occlusive layer): rapidly dropped
- Serum insulin concentration (microdevice administration, occlusive layer applied, level reached and stayed relatively constant): 110±5.37 μIU/ml
